In paper PMC8383114:

Target: C18 (a CaM binding peptide from CaMKIIα)
Test: FRET or BRET

Substance: WT-CaM of the BRET construct (Venus, CaM, target peptide, RLuc8) (from UniProt P0DP26 1-149) (natural protein)
- Kd from the Ca2+ titration curve of the BRET construct: 3.92 µM
